Data on 3 molecules can be found in patent US11254745 (CROWN BIOSCIENCE, dated 2022).

Test [1] concerns the target T1, extracellular domain of hCD4 fused with human Fc tag (hCD4-hFc) (human, UniProt P01730 26-396).
T1 construct: extracellular domain; also called human CD4-hFc; hCD4 (ELISA); not shown: human Fc tag
In words: ELISA on human CD4, OD450; table under the graph (unit from the graph's axis); Table 7 of the text gives this value to 29B7. The protocol: (§1) Example 2: Selection of the Anti-hCD4 Hybridoma Antibodies Based on Binding and Gene Reporter Assays The binding interaction between hybridoma antibody and human CD4-hFc was measured by ELISA. 96-well plates (Costar, Cat. No:9018) were coated with 100 μL of 2 μg/ml CD4-hFc (CrownBio) in PBS buffer (Hyclone, Cat. No: SH30256.01B) overnight at 4° C. The wells were aspirated and non-specific binding sites were blocked by adding 200 μL of blocking buffer containing 1% (w/v) of bovine serum albumin (BSA, Roche, Cat. No: 738328) and incubating for 1 hour at 37° C. […] The colorimetric signals were monitored at 450 nm using a SpectraMax Plus microplate reader (Molecular Devices). For the purified antibody, data were analyzed using GraphPad Prism 5 to calculated the $EC50$.
(§2) DNA encoding humanized 2B6, 29B7 and MT412 antibody light chain and heavy chain was synthesized and cloned to the expression vector pcDNA3.1 (Invitrogen, Cat. No: V-790). […] Binding of the chimeric antibody with CD4 was measured by ELISA (FIG. 6, Table 7) and FACS (FIG. 7, Table 8), and the methods used were similar to those described above in Example 2.
For orientation: ELISA stands for enzyme-linked immunosorbent assay.

For test [2], the target named is T1, extracellular domain of hCD4 fused with …. The experiment in a line: ELISA, humanized antibody on hCD4, method similar to Example 2. The protocol:
Example 2: Selection of the Anti-hCD4 Hybridoma Antibodies Based on Binding and Gene Reporter Assays The binding interaction between hybridoma antibody and human CD4-hFc was measured by ELISA. 96-well plates (Costar, Cat. No:9018) were coated with 100 μL of 2 μg/ml CD4-hFc (CrownBio) in PBS buffer (Hyclone, Cat. No: SH30256.01B) overnight at 4° C. The wells were aspirated and non-specific binding sites were blocked by adding 200 μL of blocking buffer containing 1% (w/v) of bovine serum albumin (BSA, Roche, Cat. No: 738328) and incubating for 1 hour at 37° C. After the plates are washed three times with PBS buffer containing 0.05% (v/v) Tween™ 20 (Sigma, Cat. No: P1379), 100 μL hybridoma supernatant or a serial concentrations of purified antibody (starting from 20 μg/mL) diluted in blocking buffer was added to each well and incubated at room temperature for 1 hour. The plates were washed and incubated with 100 μL/well of Goat anti-Mouse IgG (Thermo, Cat. No:31432) in blocking buffer for 60 min. After the plates were washed, 100 μL/well of substrate solution TMB (eBioscience, Cat. No:00-4201-56) was added, and the plates were incubated for 2 min at room temperature before 100 μL/well of 2N H_2SO_4 was added to stop the reaction. The colorimetric signals were monitored at 450 nm using a SpectraMax Plus microplate reader (Molecular Devices). For the purified antibody, data were analyzed using GraphPad Prism 5 to calculated the $EC50$.
(§3) DNA encoding humanized 2B6, 29B7 and MT412 antibody light chain and heavy chain was synthesized and cloned to the expression vector pcDNA3.1 (Invitrogen, Cat. No: V-790). Freestyle 293 cells (200 mL at 10^6/mL) were transfected with 100 µg of each of the humanized heavy and light chain expression plasmids and cultured for 6 days at 37° C. The humanized antibody in the supernatant was then purified with Protein-A column (GE healthcare). Binding of the chimeric antibody with CD4 was measured by ELISA (FIG. 6, Table 7) and FACS (FIG. 7, Table 8), and the methods used were similar to those described above in Example 2.

Test [3] deals with T2, extracellular domain of hCD4 fused with a histidine tag (hCD4-HisTag) (human, UniProt P01730 26-396).
T2 construct: extracellular domain; also called human CD4-HisTag; not shown: histidine tag
The experiment in a line: Biacore T200 SPR, antibody captured on Protein A, CD4-HisTag analyte, 1:1 fit, 25 C. The method, then: The binding kinetics between CD4 and CD4 antibodies were measured by Biacore™ analysis, which was performed at 25° C. on a Biacore™ T200 instrument. Protein A (GE, Cat. No:29139131-AA) was diluted with 10 mM pH 5.0 sodium acetate and immobilized onto reference and experiment flow cells of a CM5 biosensor chip to around 15000 RU using an amine coupling kit (GE, BR10050). In the beginning of each cycle, diluted test antibody (1.5 µg/mL) was injected over experiment flow cell for 1 minute to be captured. CD4-HisTag analyte series were prepared by diluting the stocks with running buffer to 100 nM followed by 2-fold serial dilution in the same buffer down to 0.78 nM. Analytes were injected in series over the reference and experiment flow cells for 3 minutes at a flow rate of 30
μL/minute. Running buffer (PBS with 0.05% P20) was allowed to flow over for 10 minutes at a flow rate of 30 μL/minute. At the end of each cycle, the biosensor surface was regenerated with 3-minute injection of 10 mM pH 2.0 Glycine-HCl buffer at a flow rate of 10 μL/minute. For each analyte sample injection (i.e., each cycle), binding responses obtained from the experimental biosensor surface were double referenced by subtracting simultaneously recorded responses from the reference surface followed by additional subtraction of responses from a single referenced running buffer sample. The association and dissociation rate constants (ka and kd) were determined simultaneously by fitting double-referenced sensorgrams of the entire titration series to Langmuir model (1:1) using Biaevaluation software. The dissociation constant, KD, was calculated from the determined rate constants by the equation KD=kd/ka.
On the technique in general: In SPR one partner is held on a chip, and binding of the other changes the refractive index at the surface.

The target in test [4] is T3, human CD4 on 293T cells stably expressing CD4 (CD4-293T) (human, UniProt P01730 26-458).
T3 construct: whole, on cells; also called 293T-CD4 cells; hCD4 (FACS)
The experiment in a line: FACS on 293T cells expressing human CD4, MFI; table under the graph (unit from the graph's axis); Table 8 of the text gives this value to 29B7. The protocol:
(§4) Cell binding analysis of anti-CD4 antibody was performed using 293T cell line stably expressing CD4 (CD4-293T). 2*10^5 CD4-293T cells were added to each well of 96-well plate and incubated with the indicated hybridoma supernatant or a serial concentrations of purified antibody (starting from 20 μg/mL) at 4° C. for 1 h. After the cells were washed three times with FACS buffer, the secondary antibody (PE Goat anti-mouse: 1:200) was added to the cells at 100 μl/well, and incubated at 4° C. for 40 min. Cells were washed three times with FACS buffer and analyzed by FACS Array. The binding EC50 of purified antibody was calculated with GraphPad Prism 5.
as §3

Test [5] concerns the target T3, human CD4 on 293T cells stably …. The experiment in a line: FACS, humanized antibody on CD4-293T cells. The protocol: as §4, §3
The target is the same in test [6]. In words: FACS on 293T cells expressing human CD4, MFI; table under the graph (unit from the graph's axis); Table 8 of the text gives this value to MT412. The protocol: as §4, §3
The target of test [7] is T1, extracellular domain of hCD4 fused with …. In words: ELISA on human CD4, OD450; table under the graph (unit from the graph's axis); Table 7 of the text gives this value to MT412. The protocol:
as §1, §2

Test [8] addresses T3, human CD4 on 293T cells stably …. In words: FACS on 293T cells expressing human CD4, MFI; table under the graph (unit from the graph's axis); Table 8 of the text gives this value to 2B6. The protocol:
as §4, §3

The target of test [9] is T1, extracellular domain of hCD4 fused with …. The experiment in a line: ELISA on human CD4, OD450; table under the graph (unit from the graph's axis); Table 7 of the text gives this value to 2B6. The protocol:
as §1, §2

B1: 2B6 humanized anti-CD4 antibody (antibody, V domains shown)
VH: QVQLQESGPGLVKPSETLSLTCTVSGDSITSGYWNWIRQPPGKGLEFLGYISFADTTNYNPSLKSRVTISRDTSKNQFSLKLSSVTAADTAVYYCARDDYGYYAMDYWGQGTLVTVSS
VL: DIQLTQSPSSLSASVGDRVTITCRASQDIDNYLNWYQQKPGKAPKLLIYYTSRLHSGVPSRFSGSGSGTDYTLTISSLQPEDFATYYCQQGNTLPTFGQGTKLEIK
notes: Expressed as heavy and light chains in Freestyle 293 cells; also called Humanized 2B6
For orientation: EC50 means the concentration giving half of the maximal effect. A higher EC50 goes with weaker potency. In general, Kd refers to a measure of binding affinity in units of concentration. Read a high Kd as a looser complex. As a reminder, the koff is the first-order rate constant of dissociation. Lower therefore signals a long-lived complex. What is called kon is the rate constant with which the complex forms. Low values mean slower complex formation, high ones faster complex formation. For the molecule B1, the concentration for a half-maximal effect (EC50) in test [1] turned out to be 5.6 ng/mL; in test [2], 0.0116 µg/mL; in test [4], 0.182 µg/mL; in test [5] it was 0.211 µg/mL. This molecule also had a dissociation constant Kd in test [3] of 0.152 nM. This molecule displayed a koff in test [3] of 7.89e-05 s⁻¹. In test [3], this molecule returned a kon of 520000 M⁻¹ s⁻¹.

B2: 29B7 humanized anti-CD4 antibody (antibody, V domains shown)
VH: QVQLVQSGAEVKKPGASVKVSCKASGDSLNTHWMHWVRQAPGQRLEWIGYINPYTGSGEYSQKFKGRATLTADISASTAYMELSSLRSEDTAVYYCAYDSTGAMDYWGQGTLVTVSS
VL: DIQMTQSPSSLSASVGDRVTITCKASQDINRYLSWFQQKPGKAPKTPIYRADRSVDGVPSRFSGSGSGQDYTLTISSLQPEDFATYYCQQYDEFPYTFGQGTKLEIK
notes: Expressed as heavy and light chains in Freestyle 293 cells; The description says only that humanized antibodies may have human IgG1 and human kappa constant regions; also called Humanized 29B7
Regarding B2, the 50% effective concentration (EC50) in [6] turned out to be 0.183 µg/mL; in test [7] it was 0.0116 µg/mL; in [2], 0.0056 µg/mL; in [5], 0.182 µg/mL. This molecule also returned a Kd in test [3] of 0.444 nM. In test [3], this molecule yielded a dissociation rate constant (koff) of 0.000457 s⁻¹. Further, the on-rate (kon) in test [3] worked out at 1.03e+06 M⁻¹ s⁻¹.

B3: MT412 humanized anti-CD4 antibody (antibody, V domains shown)
VH: QIQLVQSGSELKKPGASVKVSCKASGYTFTDYSMHWVRQAPGQGLEWMGWINTETGEPTYADDFKGRFVFSLDTSVSTAYLQISSLKAEDTAVYYCAREDYYGHDGFLYWGQGTLVTVSS
VL: DIQMTQSPSFLSASVGDRVTITCKASQDVVTTVAWYQQKPGKAPKLLIYWASLRHTGVPSRFSGSGSGTEFTLTISSLQPEDFATYFCQQYSSYPYTFGQGTKLEIKR
notes: Expressed as heavy and light chains in Freestyle 293 cells; The description says only that humanized antibodies may have human IgG1 and human kappa constant regions; also called Humanized MT412
Turning to B3, the EC50 in test [8] was determined as 0.211 µg/mL; in test [2] it was 0.0116 µg/mL; in test [9], 0.0116 µg/mL; in [5], 0.183 µg/mL. In addition, in [3], the Kd came to 1.8 nM. In test [3], this molecule gave a dissociation rate constant (koff) of 0.00199 s⁻¹. This molecule yielded a kon in test [3] of 1.11e+06 M⁻¹ s⁻¹.
